B1: Phage-1509 (peptide, not shown: large carriers)
peptide: TCSAGANYEWPWCF
B2: Phage-1510 (peptide, not shown: large carriers)
peptide: TCAAGAHYEWPMCY
B3: Phage-1511 (peptide, not shown: large carriers)
peptide: SCSAVFSYAWPTCL
B4: Phage-1512 (peptide, not shown: large carriers)
peptide: TCAAGATWPWPSCL
B5: Phage-1513 (peptide, not shown: large carriers)
peptide: TCAAGAHWIWPWCE
B6: Phage-1514 (peptide, not shown: large carriers)
peptide: TCAAGAGWQWPMCF
B7: Phage-1515 (peptide, not shown: large carriers)
peptide: SCAAGATYEWPRCL
B8: Phage-1516 (peptide, not shown: large carriers)
peptide: GCAAGANYPWPLCL
B9: Phage-1517 (peptide, not shown: large carriers)
peptide: TCAAGAYYAWPMCL
B10: Phage-1490 (Peptide-92 library clone, SEQ ID NO: 1786) (peptide)
peptide: RCAAGVMYDWPVCL
notes: Tested as clonal phage supernatant; not shown: fused to pIII of the bacteriophage
B11: Phage-1491 (Peptide-92 library clone, SEQ ID NO: 1787) (peptide)
peptide: TCSAGAHWTWPLCF
notes: as for B10
B12: Phage-1492 (Peptide-92 library clone, SEQ ID NO: 1788) (peptide)
peptide: TCSAGAHFAWPMCF
notes: as for B10
B13: Phage-1493 (Peptide-92 library clone, SEQ ID NO: 1789) (peptide)
peptide: SCAAGAHYVWPFCF
notes: as for B10
B14: Phage-1494 (Peptide-92 library clone, SEQ ID NO: 1790) (peptide)
peptide: TCSAGATYNWPWCF
notes: as for B10
B15: Phage-1495 (Peptide-92 library clone, SEQ ID NO: 1791) (peptide)
peptide: TCSAGASYPWPVCL
notes: as for B10
B16: Phage-1496 (Peptide-92 library clone, SEQ ID NO: 1792) (peptide)
peptide: WCAAGAMYPWPLCL
notes: as for B10
B17: Phage-1497 (Peptide-92 library clone, SEQ ID NO: 1793) (peptide)
peptide: LCNAGAPYKWPTCL
notes: as for B10
B18: Phage-1498 (Peptide-92 library clone, SEQ ID NO: 1794) (peptide)
peptide: LCSAGAMYPWPLCY
notes: as for B10
B19: Phage-1499 (Peptide-92 library clone, SEQ ID NO: 1795) (peptide)
peptide: TCAAGAMWVWPTCL
notes: as for B10
B20: Phage-1500 (Peptide-92 library clone, SEQ ID NO: 1796) (peptide)
peptide: LCAAGANYPWPACL
notes: as for B10
B21: Phage-1501 (Peptide-92 library clone, SEQ ID NO: 1797) (peptide)
peptide: SCAAGATYTWPMCI
notes: as for B10
B22: Phage-1502 (Peptide-92 library clone, SEQ ID NO: 1798) (peptide)
peptide: SCAAGLSYPWPDCL
notes: as for B10
B23: Phage-1503 (Peptide-92 library clone, SEQ ID NO: 1799) (peptide)
peptide: TCAAGAGWAWPFCF
notes: as for B10

molecular target: T1, Anti-CD28 Fab (SEQ ID NOs: 696, 697); experiment: phage binding ELISA; clonal phage on biotinylated anti-CD28 Fab captured on neutravidin, anti-M13-HRP detection
T1 construct: Biotinylated and captured on neutravidin coated plates in the phage ELISA
T1 sequence (VH, as listed by the source, chain 1 of 2): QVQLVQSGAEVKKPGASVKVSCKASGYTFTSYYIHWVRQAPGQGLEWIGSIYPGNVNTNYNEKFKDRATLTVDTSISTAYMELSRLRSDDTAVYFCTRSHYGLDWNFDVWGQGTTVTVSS
T1 sequence (VL, as listed by the source, chain 2 of 2): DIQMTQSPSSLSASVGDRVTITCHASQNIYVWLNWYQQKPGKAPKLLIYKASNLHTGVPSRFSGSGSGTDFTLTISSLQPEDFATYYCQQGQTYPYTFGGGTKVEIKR
Procedure: (§1) Clonal phage were harvested as crude supematants and screened via standard ELISAs. […] Prior to the addition of clonal phage, wells were incubated with blocking buffer and CD28 antigen or blocking buffer alone. Without washing or aspirating, clonal phage supematants were then added to the wells and incubated for a short time. Wells were then washed followed by detection of bound phage using a horse radish conjugated anti-M13 antibody.

In order of rising “Anti-CD28 Fab (SEQ ID NOs: 696, 697) signal” value:
1. B8  1.59
2. B9  1.59
3. B6  1.6
4. B7  1.6
5. B2  1.61
6. B3  1.61
7. B4  1.61
8. B5  1.61
9. B1  1.62

molecular target: T2, Anti-CD28 Fab (SEQ ID NOs: 696, 697); experiment: phage ELISA; biotinylated anti-CD28 Fab on neutravidin plate, clonal phage supernatant, anti-M13 HRP detection;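 also: before phage addition, wells were pretreated with either CD28 antigen in blocking buffer or only blocking buffer, and phage was added without an intervening wash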
T2 construct: In the phage ELISA the Fab was biotinylated and captured on neutravidin coated plates
T2 sequence (VH, as listed by the source, chain 1 of 2): as the sequence (VH, as listed by the source, chain 1 of 2) above
T2 sequence (VL, as listed by the source, chain 2 of 2): as the sequence (VL, as listed by the source, chain 2 of 2) above
Procedure: as §1

In order of falling “Phage binding ELISA, Anti-CD28 Fab signal” value:
1. B10  1.7
2. B11  1.69
3. B12  1.69
4. B13  1.68
5. B14  1.68
6. B15  1.67
7. B16  1.67
8. B17  1.66
9. B18  1.66
10. B19  1.66
11. B20  1.66
12. B21  1.66
13. B22  1.65
14. B23  1.65

molecular target: T2, Anti-CD28 Fab (SEQ ID NOs: 696, 697); experiment: phage ELISA; Fab-coated wells pre-incubated with CD28 antigen as competitor, clonal phage supernatant, anti-M13 HRP detection
Procedure: as §1

In order of rising “Phage binding ELISA, Anti-CD28 Fab signal in the presence of CD28” value:
1. B14  0.05
2. B11  0.06
3. B16  0.06
4. B10  0.07
5. B12  0.07
6. B15  0.07
7. B17  0.07
8. B19  0.07
9. B20  0.07
10. B21  0.07
11. B22  0.07
12. B13  0.08
13. B18  0.08
14. B23  0.09

molecular target: T1, Anti-CD28 Fab (SEQ ID NOs: 696, 697); experiment: phage binding ELISA on captured anti-CD28 Fab; competitor CD28 antigen pre-incubated in the wells
Procedure: as §1

In order of rising “Anti-CD28 Fab signal in the presence of CD28” value:
1. B8  0.05
2. B1  0.06
3. B5  0.07
4. B7  0.07
5. B9  0.07
6. B3  0.08
7. B4  0.08
8. B6  0.11
9. B2  0.12
